# B1: human GLUT9b (SLC2A9b), recombinant (natural protein, UniProt Q9NRM0-2 1-511, looked up)
# chain: MKLSKKDRGEDEESDSAKKKLDWSCSLLVASLAGAFGSSFLYGYNLSVVNAPTPYIKAFYNESWERRHGRPIDPDTLTLLWSVTVSIFAIGGLVGTLIVKMIGKVLGRKHTLLANNGFAISAALLMACSLQAGAFEMLIVGRFIMGIDGGVALSVLPMYLSEISPKEIRGSLGQVTAIFICIGVFTGQLLGLPELLGKESTWPYLFGVIVVPAVVQLLSLPFLPDSPRYLLLEKHNEARAVKAFQTFLGKADVSQEVEEVLAESRVQRSIRLVSVLELLRAPYVRWQVVTVIVTMACYQLCGLNAIWFYTNSIFGKAGIPPAKIPYVTLSTGGIETLAAVFSGLVIEHLGRRPLLIGGFGLMGLFFGTLTITLTLQDHAPWVPYLSIVGILAIIASFCSGPGGIPFILTGEFFQQSQRPAAFIIAGTVNWLSNFAVGLLFPFIQKSLDTYCFLVFATICITGAIYLYFVLPETKNRTYAEISQAFSKRNKAYPPEEKIDSAVTDGKINGRP
# modifications: N-glycosylated (shift with PNGase; site not given)
# notes: human GLUT9 isoform b (SLC2A9b), cDNA from Origene, amplified with primers from the start codon (ATGAAGCTCAGTAAAAAGGACCGAG) to the stop codon; differs from GLUT9a only in the N-terminal residues; Tag order from the N-terminus: 10xHis, FLAG, HRV 3C (PreScission) site, HA, then GLUT9b; The protein was eluted from the cobalt resin by HRV 3C cleavage, so only the HA tag stays on it (it is …)
# Biological target: the molecule itself
# Experiment: SDS-PAGE with silver stain and Western blot (anti-HA); eluate of the cobalt IMAC column (HRV 3C elution) from DDM-solubilised oocyte membranes, 8% SDS polyacrylamide gel
protein,measurement,value
B1,binding result,binds
